Where a chain is given by its changes, count along the chain named.
T1: cyno TIM-3-His6 (cynomolgus monkey)
T1 construct: Made in HEK293 cells; not shown: 6-His tag
T1 chain: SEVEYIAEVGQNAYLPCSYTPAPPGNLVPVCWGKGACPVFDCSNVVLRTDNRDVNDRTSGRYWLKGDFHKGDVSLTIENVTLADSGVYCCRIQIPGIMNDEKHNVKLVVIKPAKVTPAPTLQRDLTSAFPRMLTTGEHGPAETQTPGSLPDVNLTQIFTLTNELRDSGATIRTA

B1: 3903E11 (VH1.0, VL1.1) (antibody, human IgG1, lambda)
heavy: not shown
light: QSALTQPRSVSGSPGQSVTISCTGTSSDVGGYNYVSWYQQHPGKAPKLMIFDVSKRPSGVPDRFSGSKSGNTASLTISGLQAEDEADYYCSSYADSVVFGGGTKVTVLGQPKAAPSVTLFPPSSEELQANKATLVCLISDFYPGAVTVAWKADSSPVKAGVETTTPSKQSNNKYAASSYLSLTPEQWKSHKSYSCQVTHEGSTVEKTVAPTECS
notes: Pair-wise combination of parental heavy chain and VL1.1-CL; IgG1 lambda
B2: 3903E11 (VH1.2, VL1.2) (antibody, human IgG1, lambda)
heavy: not shown
light: B1 light with Q1S, S2Y, A3E, F51Y
notes: IgG1 lambda
B3: 3903E11 (VH1.1, VL1.1) (antibody, human IgG1, lambda)
heavy: not shown
light: B1 light
notes: IgG1 lambda
B4: 3903E11 (VH1.3, VL1.1) (antibody, human IgG1, lambda)
heavy: not shown
light: B1 light
notes: IgG1 lambda
B5: 3903E11 (VH1.3, VL1.2) (antibody, human IgG1, lambda)
heavy: not shown
light: B1 light with Q1S, S2Y, A3E, F51Y
notes: IgG1 lambda
B6: 3903E11 (VH1.3, VL1.3) (antibody, IgG1)
heavy: not shown
light: B1 light with F51Y
notes: IgG1 lambda
B7: 3903E11 (VH1.3, VL1.0) (antibody, human IgG1, lambda)
heavy: not shown
light: B1 light with Q1S, S2Y, A3E
notes: IgG1 lambda
B8: 3903E11 (VH1.2, VL1.0) (antibody, human IgG1, lambda)
heavy: not shown
light: B1 light with Q1S, S2Y, A3E
notes: IgG1 lambda
B9: 3903E11 (VH1.2, VL1.1) (antibody, human IgG1, lambda)
heavy: not shown
light: B1 light
notes: IgG1 lambda
B10: 3903E11 (VH1.0, VL1.3) (antibody, IgG1)
heavy: not shown
light: B1 light with F51Y
notes: IgG1 lambda
B11: 3903E11 (VH1.0, VL1.2) (antibody, human IgG1, lambda)
heavy: not shown
light: B1 light with Q1S, S2Y, A3E, F51Y
notes: IgG1 lambda
B12: 3903E11 (VH1.1, VL1.3) (antibody, IgG1)
heavy: not shown
light: B1 light with F51Y
notes: IgG1 lambda
B13: 27.12E12 (antibody, V domains shown)
VH: EVQLQQSGAELVRPGALVKLSCKASGFNIKDYYMYWMKQRPEQGLEWIGWIDPENVKTIYDPKFQGRATLTADTSSNTAYLQLSSLTSEDTAVYYCTRDFGYVGFFDVWGAGTTVTVSS
VL: DIVMTQSQKFMSTSVGDRVSVNCKASQNVGTNVVWYQQKPGQSPKALIYSASYRYSGVPDRFTGSGSGTDFTLTISTVQSEDLAEYFCQQYNSYPLTFGGGTKLEIKR

molecular target: T2, human TIM-3 on huTIM-3-CHO-S cells (human, UniProt Q8TDQ0 22-202); assay: FACS on CHO-S-hTIM-3 cells
T2 construct: Membrane-anchored human TIM-3 ECD (NP_116171) stably expressed on CHO-S cells; also called CHO-S-hTIM3; CHO-S-hTIM-3; not shown: membrane anchor of the expression vector, not described

| MFI at 0.1 µg/ml | MFI at 1 µg/ml | MFI at 10 µg/ml | Binder |
| --- | --- | --- | --- |
| 148 MFI | 1460 MFI | 1870 MFI | B1 |
| 114 MFI | 1300 MFI | 1900 MFI | B2 |
| 154 MFI | 1390 MFI | – | B3 |
| 105 MFI | 1050 MFI | – | B4 |
| 87 MFI | 958 MFI | – | B5 |
| 82 MFI | 1020 MFI | – | B6 |
| 105 MFI | 957 MFI | – | B7 |
| 156 MFI | 1510 MFI | 1950 MFI | B8 |
| 148 MFI | 1400 MFI | 1930 MFI | B9 |
| 162 MFI | 1540 MFI | 1930 MFI | B10 |
| 140 MFI | 1340 MFI | 1930 MFI | B11 |

molecular target: T3, human TIM-3 ECD with 6-His tag (hu TIM-3-His6) (human, UniProt Q8TDQ0 22-200); assay: SPR (Biacore), relative to 3903E11 (VH1.0, VL1.0)
T3 construct: Novoprotein Cat# C356; the entry includes the His tag; also called hTIM3-His; human TIM3-His6

| Human TIM3 KD Ratio to Parent | Binder |
| --- | --- |
| 0.78 | B1 |
| 0.62 | B8 |
| 0.52 | B9 |

Molecular target: T1, cyno TIM-3-His6
Assay: SPR (Biacore)

| Kd | Binder |
| --- | --- |
| 6.5 nM | B1 |
| 6.3 nM | B2 |
| 17.9 nM | B3 |
| 19.5 nM | B4 |
| 19.9 nM | B5 |
| 22.3 nM | B12 |
| 19.3 nM | B7 |
| 5.5 nM | B8 |
| 5.6 nM | B9 |
| 6.7 nM | B10 |
| 8.6 nM | B11 |

molecular target: T3, human TIM-3 ECD with 6-His tag (hu …); assay: SPR (Biacore)

| Kd | Binder |
| --- | --- |
| 2.7 nM | B1 |
| 1.6 nM | B2 |
| 7.6 nM | B3 |
| 4.7 nM | B4 |
| 6 nM | B5 |
| 4.5 nM | B6 |
| 7.4 nM | B12 |
| 6.4 nM | B7 |
| 2.2 nM | B8 |
| 1.8 nM | B9 |
| 2.7 nM | B10 |
| 3.4 nM | B11 |

molecular target: T4, wild-type TIM-3 (hu TIM-3), HEK-expressed (human, UniProt Q8TDQ0 22-202, limits assumed); assay: SPR
T4 construct: Soluble protein of the mutagenesis study

| Kd | Binder |
| --- | --- |
| 51.6 nM | B13 |
